Results reported in the supplement of paper PMC10201428.
± gives the standard deviation of the averaged measurements.

Key:
[1] = system: VchCAST RNA-guided transposition machinery (E. coli BL21(DE3) host, lacZ target); experiment: relative integration efficiency (T-RL orientation) vs wild-type transposon end (log2 (normalized fold change)); transposon end mutated: right end (5 bp flank + 75 bp right end); higher = more efficient transposition
How it was run: (§1)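 A T7-driven effector plasmid encoding a CRISPR array, tniQ-cas8-cas7-cas6 and tnsA-tnsB-tnsC was co-transformed into E. coli BL21(DE3) together with a pUC57 mini-transposon donor holding barcoded pools of 1549 left-end or 1849 right-end variants. Transformants were plated with 0.1 mM IPTG at 37°C for 18 h. Illumina sequencing of PCR-amplified input plasmids and genomic integration junctions gave barcode abundances, and relative integration efficiency is their output/input fold change, normalised to reference barcodes and log-transformed.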

[2] = system: VchCAST RNA-guided transposition machinery (E. coli BL21(DE3) host, lacZ target); experiment: relative integration efficiency (T-LR orientation) vs wild-type transposon end (log2 (normalized fold change)); transposon end mutated: right end (5 bp flank + 75 bp right end); higher = more efficient transposition
How it was run: as §1

Row | Sequence | relative integration efficiency (log2) [1] | relative integration efficiency (log2) [2]
1 | ACATTTGTCGATACAACCATAAAATGATAATTACCACCCCTAAATTGATAATTATCACACCCATTTAACTATAACGCTCTGATCATAGTCAGACCAACATTGCTACGACCCGTATTCGCACCGACAC | -3.12 ± 0.048 | -0.156 ± 0.26
2 | ACATTTGTCGATACAACCATAAAATGATAATTACCACCCCTACATTGATAATTATCACACCCATTTAACTATAACGCTCTGATCATAGTCAGACCAACATTGCTACGACCCGTATTCGCACCGACAC | -3.06 ± 0.23 | -0.393 ± 0.058
3 | ACATTTGTCGATACAACCATAAAATGATAATTCACCCATAAATTGATAATTATCACACCCCAATTTAACTATAACGCTCTGATCATAGTCAGACCAACATTGCTACGACCCGTATTCGCACCGACAC | -2.26 ± 0.28 | 1.05 ± 0.034
4 | ACATTTGTCGATACAACCATAAAATGATAATTCACCCATCAATTGATAATTATCACACCCCAATTTAACTATAACGCTCTGATCATAGTCAGACCAACATTGCTACGACCCGTATTCGCACCGACAC | -3.3 ± 0.52 | 0.029 ± 0.092
5 | ACATTTGTCGATACAACCCTAAAATGATAATTACACCCATAAATGGATAATTATCACACCCAATTTAACTATAACGCTCTGATCATAGTCAGACCAACATTGCTACGACCCGTATTCGCACCGACAC | -3.17 ± 0.19 | -0.544 ± 0.14
6 | ACATTTGTCGATACAACCCTAAAATGATAATTACACCCATAAATGGATAATTATCACCCCCAATTTAACTATAACGCTCTGATCATAGTCAGACCAACATTGCTACGACCCGTATTCGCACCGACAC | -3.44 ± 0.12 | -1.16 ± 0.21
7 | ACATTTGTCGATACAACCCTAAAATGATAATTACACCCATAAATGGATCATTATCACACCCAATTTAACTATAACGCTCTGATCATAGTCAGACCAACATTGCTACGACCCGTATTCGCACCGACAC | -4.03 ± 0.13 | -1.24 ± 0.25
8 | ACATTTGTCGATACAACCCTAAAATGATAATTACACCCATAAATGGATCATTATCACCCCCAATTTAACTATAACGCTCTGATCATAGTCAGACCAACATTGCTACGACCCGTATTCGCACCGACAC | -4.03 ± 0.42 | -1.4 ± 0.051
9 | ACATTTGTCGATACAACCCTAAAATGATAATTACACCCATAAATTCATAATTATCACACCCAATTTAACTATAACGCTCTGATCATAGTCAGACCAACATTGCTACGACCCGTATTCGCACCGACAC | -4.55 ± 0.13 | -2.19 ± 0.3
10 | ACATTTGTCGATACAACCCTAAAATGATAATTACACCCATAAATTCATAATTATCACCCCCAATTTAACTATAACGCTCTGATCATAGTCAGACCAACATTGCTACGACCCGTATTCGCACCGACAC | -4.67 ± 0.055 | -1.84 ± 0.085
11 | ACATTTGTCGATACAACCCTAAAATGATAATTACACCCATAAATTCATCATTATCACACCCAATTTAACTATAACGCTCTGATCATAGTCAGACCAACATTGCTACGACCCGTATTCGCACCGACAC | -4.888 ± 0.035 | -1.06 ± 0.37
12 | ACATTTGTCGATACAACCCTAAAATGATAATTACACCCATAAATTCATCATTATCACCCCCAATTTAACTATAACGCTCTGATCATAGTCAGACCAACATTGCTACGACCCGTATTCGCACCGACAC | -4.56 ± 0.18 | -1.16 ± 0.18
13 | ACATTTGTCGATACAACCCTAAAATGATAATTACACCCATAAATTGATAATTATCACACCCAATTTAACTATAACGCTCTGATCATAGTCAGACCAACATTGCTACGACCCGTATTCGCACCGACAC | -2.1 ± 0.33 | 1.04 ± 0.3
14 | ACATTTGTCGATACAACCCTAAAATGATAATTACACCCATAAATTGATAATTATCACCCCCAATTTAACTATAACGCTCTGATCATAGTCAGACCAACATTGCTACGACCCGTATTCGCACCGACAC | -2.33 ± 0.4 | 0.88 ± 0.35
15 | ACATTTGTCGATACAACCCTAAAATGATAATTACACCCATAAATTGATCATTATCACACCCAATTTAACTATAACGCTCTGATCATAGTCAGACCAACATTGCTACGACCCGTATTCGCACCGACAC | -3 ± 0.31 | 0.178 ± 0.16
16 | ACATTTGTCGATACAACCCTAAAATGATAATTACACCCATAAATTGATCATTATCACCCCCAATTTAACTATAACGCTCTGATCATAGTCAGACCAACATTGCTACGACCCGTATTCGCACCGACAC | -2.5 ± 0.47 | 0.684 ± 0.37
17 | ACATTTGTCGATCCAACCATAAAATGATAATTACACCCATAAATGGATAATTATCACACCCAATTTAACTATAACGCTCTGATCATAGTCAGACCAACATTGCTACGACCCGTATTCGCACCGACAC | -1.4 ± 0.23 | 1.38 ± 0.094
18 | ACATTTGTCGATCCAACCATAAAATGATAATTACACCCATAAATGGATCATTATCACACCCAATTTAACTATAACGCTCTGATCATAGTCAGACCAACATTGCTACGACCCGTATTCGCACCGACAC | -2.08 ± 0.19 | 0.888 ± 0.17

Row | Sequence | relative integration efficiency (log2) [1] | relative integration efficiency (log2) [2]
19 | ACATTTGTCGATCCAACCATAAAATGATAATTACACCCATAAATTCATAATTATCACACCCAATTTAACTATAACGCTCTGATCATAGTCAGACCAACATTGCTACGACCCGTATTCGCACCGACAC | -2.45 ± 0.51 | 0.641 ± 0.68
20 | ACATTTGTCGATCCAACCATAAAATGATAATTACACCCATAAATTCATCATTATCACACCCAATTTAACTATAACGCTCTGATCATAGTCAGACCAACATTGCTACGACCCGTATTCGCACCGACAC | -2.47 ± 0.39 | 1.38 ± 0.015
21 | ACATTTGTCGATCCAACCATAAAATGATAATTACACCCATAAATTGATAATTATCACACCCAATTTAACTATAACGCTCTGATCATAGTCAGACCAACATTGCTACGACCCGTATTCGCACCGACAC | -0.969 ± 0.28 | 2.2 ± 0.23
22 | ACATTTGTCGATCCAACCATAAAATGATAATTACACCCATAAATTGATCATTATCACACCCAATTTAACTATAACGCTCTGATCATAGTCAGACCAACATTGCTACGACCCGTATTCGCACCGACAC | -1.61 ± 0.25 | 2.167 ± 0.0082
23 | ACATTTGTGGATACAACCATAAAACGATAATTACACCCATAAATGGATAATTATCACACCCAATTTAACTATAACGCTCTGATCATAGTCAGACCAACATTGCTACGACCCGTATTCGCACCGACAC | -1.46 ± 0.2 | 1.3 ± 0.17
24 | ACATTTGTGGATACAACCATAAAACGATAATTACACCCATAAATGGATCATTATCACACCCAATTTAACTATAACGCTCTGATCATAGTCAGACCAACATTGCTACGACCCGTATTCGCACCGACAC | -1.81 ± 0.3 | 0.737 ± 0.25
25 | ACATTTGTGGATACAACCATAAAACGATAATTACACCCATAAATTCATAATTATCACACCCAATTTAACTATAACGCTCTGATCATAGTCAGACCAACATTGCTACGACCCGTATTCGCACCGACAC | -2.15 ± 0.21 | 0.933 ± 0.13
26 | ACATTTGTGGATACAACCATAAAACGATAATTACACCCATAAATTCATCATTATCACACCCAATTTAACTATAACGCTCTGATCATAGTCAGACCAACATTGCTACGACCCGTATTCGCACCGACAC | -2.23 ± 0.37 | 1.17 ± 0.22
27 | ACATTTGTGGATACAACCATAAAACGATAATTACACCCATAAATTGATAATTATCACACCCAATTTAACTATAACGCTCTGATCATAGTCAGACCAACATTGCTACGACCCGTATTCGCACCGACAC | -1.13 ± 0.22 | 2.04 ± 0.26
28 | ACATTTGTGGATACAACCATAAAACGATAATTACACCCATAAATTGATCATTATCACACCCAATTTAACTATAACGCTCTGATCATAGTCAGACCAACATTGCTACGACCCGTATTCGCACCGACAC | -1.43 ± 0.24 | 2.1 ± 0.088
29 | ACATTTGTGGATACAACCATAAAATGATAATTACACCCATAAATGGATAATTATCACACCCAATTTAACTATAACGCTCTGATCATAGTCAGACCAACATTGCTACGACCCGTATTCGCACCGACAC | -0.586 ± 0.33 | 2.14 ± 0.031
30 | ACATTTGTGGATACAACCATAAAATGATAATTACACCCATAAATGGATAATTATCACCCCCAATTTAACTATAACGCTCTGATCATAGTCAGACCAACATTGCTACGACCCGTATTCGCACCGACAC | -1.15 ± 0.23 | 1.55 ± 0.31
31 | ACATTTGTGGATACAACCATAAAATGATAATTACACCCATAAATGGATCATTATCACACCCAATTTAACTATAACGCTCTGATCATAGTCAGACCAACATTGCTACGACCCGTATTCGCACCGACAC | -1.53 ± 0.23 | 1.01 ± 0.2
32 | ACATTTGTGGATACAACCATAAAATGATAATTACACCCATAAATGGATCATTATCACCCCCAATTTAACTATAACGCTCTGATCATAGTCAGACCAACATTGCTACGACCCGTATTCGCACCGACAC | -1.28 ± 0.28 | 1.36 ± 0.19
33 | ACATTTGTGGATACAACCATAAAATGATAATTACACCCATAAATGGATTATTATCACACCCAATTTAACTATAACGCTCTGATCATAGTCAGACCAACATTGCTACGACCCGTATTCGCACCGACAC | -1.72 ± 0.3 | 1.2 ± 0.22
34 | ACATTTGTGGATACAACCATAAAATGATAATTACACCCATAAATTCATAATTATCACACCCAATTTAACTATAACGCTCTGATCATAGTCAGACCAACATTGCTACGACCCGTATTCGCACCGACAC | -1.9 ± 0.49 | 0.877 ± 0.27
35 | ACATTTGTGGATACAACCATAAAATGATAATTACACCCATAAATTCATAATTATCACCCCCAATTTAACTATAACGCTCTGATCATAGTCAGACCAACATTGCTACGACCCGTATTCGCACCGACAC | -1.64 ± 0.37 | 1.27 ± 0.13
